Binding result and EC50 data for two molecules are collected here from PMC7190724, “Improved GPCR ligands from nanobody tethering” (Nature Communications, 2020).

Assay [1] has as its target T1, rat PTHR1 (Rattus norvegicus, UniProt P25961).
T1 construct: parathyroid hormone receptor-1, rat; also called rPTHR1; source: HEK293, stably transfected (GR35), on cells
Briefly: flow cytometry on cells; HEK293 cell lines stably transfected with PTHRs, in suspension, incubated on ice with 100 nM VHH sortagged with Alexafluor647, pelleted, washed and analysed. As to conditions: one partner purified. For orientation: Flow cytometry measures light scatter and fluorescence of single cells or particles in a stream.

Assay [2] concerns the target T2, PTHR1_(6E) (Homo sapiens PTHR1 with 14-residue …, UniProt Q03431, chimera).
T2 construct: PTHR1 from its start to the replaced 14-residue fragment of exon 2; replaces 14 residues of exon 2; PTHR1 from the end of the replaced fragment of exon 2 to its end; Made with the Q5 site-directed mutagenesis kit; whole receptor on cells; source: HEK293, stably transfected, on cells
Briefly: flow cytometry on cells; dose response of staining with VHH-Alexafluor647 (median fluorescent intensity); cells in PBS, 1 h on ice; curves without plateau constrained to the plateau seen with other VHHs. The note with it: one partner purified.

T1 sequence (P25961 27-591): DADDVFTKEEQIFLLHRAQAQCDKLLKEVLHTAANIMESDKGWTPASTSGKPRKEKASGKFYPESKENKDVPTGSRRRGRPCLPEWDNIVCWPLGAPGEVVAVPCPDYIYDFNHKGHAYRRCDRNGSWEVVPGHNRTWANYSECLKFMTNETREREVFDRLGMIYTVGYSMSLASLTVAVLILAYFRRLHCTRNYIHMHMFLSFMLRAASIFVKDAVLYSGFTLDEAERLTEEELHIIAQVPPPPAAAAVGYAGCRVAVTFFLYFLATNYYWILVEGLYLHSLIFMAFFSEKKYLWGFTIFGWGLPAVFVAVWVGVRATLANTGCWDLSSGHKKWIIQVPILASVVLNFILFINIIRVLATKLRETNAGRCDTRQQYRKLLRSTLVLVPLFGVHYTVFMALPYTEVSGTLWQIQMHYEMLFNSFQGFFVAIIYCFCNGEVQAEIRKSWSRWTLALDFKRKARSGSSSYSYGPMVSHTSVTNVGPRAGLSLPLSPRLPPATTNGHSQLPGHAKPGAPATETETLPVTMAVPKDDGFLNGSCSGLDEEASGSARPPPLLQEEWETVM
T2 sequence (Q03431 whole entry, looked up, change not shown, the tested form may be a part): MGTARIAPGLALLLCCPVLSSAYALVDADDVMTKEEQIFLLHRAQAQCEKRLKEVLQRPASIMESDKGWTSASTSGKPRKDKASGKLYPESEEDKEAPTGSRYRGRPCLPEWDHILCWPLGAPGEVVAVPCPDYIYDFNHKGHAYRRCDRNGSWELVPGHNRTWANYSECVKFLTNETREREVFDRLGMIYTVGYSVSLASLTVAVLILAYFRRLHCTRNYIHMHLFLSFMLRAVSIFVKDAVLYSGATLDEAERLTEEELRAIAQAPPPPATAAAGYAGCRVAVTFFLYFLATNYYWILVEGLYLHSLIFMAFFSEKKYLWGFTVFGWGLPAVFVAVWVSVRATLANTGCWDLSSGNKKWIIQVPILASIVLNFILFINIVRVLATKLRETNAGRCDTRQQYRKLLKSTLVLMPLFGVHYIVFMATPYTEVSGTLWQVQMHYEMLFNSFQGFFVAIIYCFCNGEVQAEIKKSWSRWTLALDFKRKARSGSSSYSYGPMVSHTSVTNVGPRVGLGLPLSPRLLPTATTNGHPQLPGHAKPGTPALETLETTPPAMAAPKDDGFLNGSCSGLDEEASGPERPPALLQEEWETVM

B1: VHH_(PTHR) (VHH)
VHH: EVQLVESGGGLVQAGGSLRLSCAASGNIFANNIMGWYRQPPGKEREFVAHVSHDGDSMYAVSVKGRFAISRKDATNLYLQMNSLKPEDTAIYFCRLLNIPTQGRMEGFWGQGTQVTVSS
notes: VHH 22A3; sortase motif of the expressed construct PelB-VHH-LPETGG-His6; on sortagging what follows LPET is replaced by the GGG of the label; Expressed as PelB-VHH-LPETGG-His6; also called 22A3; VHH_(PTHR)-tetramethylrhodamine; source: E. coli WK6 (pHEN6 vector), osmotic shock, purified (Ni-NTA), then sortagged; not shown: His6, C-terminal, cleaved
Turning to B1, in assay [1], the binding result is listed as “binds”.

B2: VHH6E (VHH)
VHH: QVQLQESGGGLVQPGGSLRLSCAASGFVFENSAMAWYRQAPGKERELIAVIGTTFIKLAESVKGRFTISRDNAKSTVYLQMNNLKPEDTAVYYCSKSGAYWGQGTQVTVSS
notes: VHH05; sortase motif of the expressed construct PelB-VHH-LPETGG-His6; on sortagging what follows LPET is replaced by the GGG of the label; Recognises a 14-mer peptide of UBC6e; also called VHH05; source: E. coli WK6 (pHEN6 vector), osmotic shock, purified (Ni-NTA), then sortagged; not shown: His6, C-terminal, cleaved
As for B2, in assay [2], the EC50 is less than 10 nM.

In general, EC50 refers to the concentration needed to bring the measured effect to its halfway point.
